Measured values as given in patent US20220096649A1.

Legend:
SIRP-α human v1 (human) = SIRP-α human v1 (human) (UniProt P78324); experiment: SPR, antibody on GLC chip, SIRP as analyte
[1] = biological target: SIRP-α mouse BALBc (mouse (BALBc)) (UniProt P97797); experiment: SPR, antibody on GLC chip, SIRP as analyte
[2] = biological target: SIRP-α mouse NOD (mouse (NOD)) (UniProt P97797); experiment: SPR, antibody on GLC chip, SIRP as analyte
[3] = biological target: SIRP-α mouse BALBc (mouse (BALBc)) (UniProt P97797); experiment: SPR, antibody on GLC chip, SIRP as analyte; Mouse BALBc SIRP-α allele
[4] = biological target: SIRP-α mouse NOD (mouse (NOD)) (UniProt P97797); experiment: SPR, antibody on GLC chip, SIRP as analyte; Mouse NOD SIRP-α allele

Chain of SIRP-α human v1 (human) (P78324 31-149): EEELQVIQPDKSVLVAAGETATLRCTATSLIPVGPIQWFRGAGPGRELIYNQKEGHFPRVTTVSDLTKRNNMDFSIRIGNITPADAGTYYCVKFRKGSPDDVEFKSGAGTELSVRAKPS

Binder | Kd (SIRP-α human v1 (human)) [pM] | Kd [1] [pM] | Kd [2] [pM] | Kd [3] [pM] | Kd [4] [pM]
Anti-SIRP-α antibody 136, light chain Mut_Q38E, heavy chain Mut (antibody, V domains shown) VH: EVQLVESGGGVVQPGRSLRLSCAASGFTFSSYDVNWVRQAPGKGLEWVSLISGSGEIIYYADSVKGRFTISRDNSKNTLYLQMNSLRAEDTAVYYCAKENNRYRFFDDWGQGTLVTVSS VL: EIVLTQSPGTLSLSPGERATLSCRASQSVYTYLAWYQEKPGQAPRLLIYGASSRATGIPDRFSGSGSGTEFTLTISSLQSEDFAVYYCQQYYDRPPLTFGGGTKVEIK | 6200 | 3000 | 6000 |  | 
Anti-SIRP-α antibody 136, light chain Mut_I2T, heavy chain Mut (antibody, V domains shown) VH: EVQLVESGGGVVQPGRSLRLSCAASGFTFSSYDVNWVRQAPGKGLEWVSLISGSGEIIYYADSVKGRFTISRDNSKNTLYLQMNSLRAEDTAVYYCAKENNRYRFFDDWGQGTLVTVSS VL: ETVLTQSPGTLSLSPGERATLSCRASQSVYTYLAWYQQKPGQAPRLLIYGASSRATGIPDRFSGSGSGTEFTLTISSLQSEDFAVYYCQQYYDRPPLTFGGGTKVEIK | 720 | 420 | 680 |  | 
Anti-SIRP-α antibody 136, light chain Mut_S22T, heavy chain Mut (antibody, V domains shown) VH: EVQLVESGGGVVQPGRSLRLSCAASGFTFSSYDVNWVRQAPGKGLEWVSLISGSGEIIYYADSVKGRFTISRDNSKNTLYLQMNSLRAEDTAVYYCAKENNRYRFFDDWGQGTLVTVSS VL: EIVLTQSPGTLSLSPGERATLTCRASQSVYTYLAWYQQKPGQAPRLLIYGASSRATGIPDRFSGSGSGTEFTLTISSLQSEDFAVYYCQQYYDRPPLTFGGGTKVEIK | 5000 | 1600 | 2400 |  | 
Anti-SIRP-α antibody 136, light chain Mut, heavy chain Mut (antibody, V domains shown) VH: EVQLVESGGGVVQPGRSLRLSCAASGFTFSSYDVNWVRQAPGKGLEWVSLISGSGEIIYYADSVKGRFTISRDNSKNTLYLQMNSLRAEDTAVYYCAKENNRYRFFDDWGQGTLVTVSS VL: EIVLTQSPGTLSLSPGERATLSCRASQSVYTYLAWYQQKPGQAPRLLIYGASSRATGIPDRFSGSGSGTEFTLTISSLQSEDFAVYYCQQYYDRPPLTFGGGTKVEIK | 7300 | 3100 | 5200 |  | 
Anti-SIRP-α antibody 136, light chain Mut_I2T, heavy chain Mut_V34M (antibody, V domains shown) VH: EVQLVESGGGVVQPGRSLRLSCAASGFTFSSYDMNWVRQAPGKGLEWVSLISGSGEIIYYADSVKGRFTISRDNSKNTLYLQMNSLRAEDTAVYYCAKENNRYRFFDDWGQGTLVTVSS VL: ETVLTQSPGTLSLSPGERATLSCRASQSVYTYLAWYQQKPGQAPRLLIYGASSRATGIPDRFSGSGSGTEFTLTISSLQSEDFAVYYCQQYYDRPPLTFGGGTKVEIK | 550 | 360 | 600 |  | 
Anti-SIRP-α antibody 136, light chain Mut_S12T, heavy chain Mut (antibody, V domains shown) VH: EVQLVESGGGVVQPGRSLRLSCAASGFTFSSYDVNWVRQAPGKGLEWVSLISGSGEIIYYADSVKGRFTISRDNSKNTLYLQMNSLRAEDTAVYYCAKENNRYRFFDDWGQGTLVTVSS VL: EIVLTQSPGTLTLSPGERATLSCRASQSVYTYLAWYQQKPGQAPRLLIYGASSRATGIPDRFSGSGSGTEFTLTISSLQSEDFAVYYCQQYYDRPPLTFGGGTKVEIK | 4900 | 2100 | 2900 |  | 
Anti-SIRP-α antibody 136, light chain wt, heavy chain Mut (antibody, V domains shown) VH: EVQLVESGGGVVQPGRSLRLSCAASGFTFSSYDVNWVRQAPGKGLEWVSLISGSGEIIYYADSVKGRFTISRDNSKNTLYLQMNSLRAEDTAVYYCAKENNRYRFFDDWGQGTLVTVSS VL: ETVLTQSPGTLTLSPGERATLTCRASQSVYTYLAWYQEKPGQAPRLLIYGASSRATGIPDRFSGSGSGTEFTLTISSLQSEDFAVYYCQQYYDRPPLTFGGGTKVEIK | 560 | 420 | 680 |  | 
Anti-SIRP-α antibody 119, light chain wt, heavy chain Mut (antibody, V domains shown) VH: EVQLLESGGGVVQPGGSLRLSCAASGFSFSNFAVTWVRQAPGKGLEWVSTIGSGDTYYADSVKGRFTISRDNSKNTLYLQMNSLRAEDTAVYYCAKDSTVSWSGDFFDYWGQGTLVTVSS VL: EIVLTQSPATLSVSPGERATFSCRASQNVKNDLAWYQQRPGQAPRLLIYAARIRETGIPERFSGSGSGTEFTLTITSLQSEDFAVYYCQQYYDWPPFTFGGGTKVEIK | 250 |  |  |  | 
Anti-SIRP-α antibody 119, light chain Mut, heavy chain Mut (antibody, V domains shown) VH: EVQLLESGGGVVQPGGSLRLSCAASGFSFSNFAVTWVRQAPGKGLEWVSTIGSGDTYYADSVKGRFTISRDNSKNTLYLQMNSLRAEDTAVYYCAKDSTVSWSGDFFDYWGQGTLVTVSS VL: EIVLTQSPATLSVSPGERATLSCRASQNVKNDLAWYQQKPGQAPRLLIYAARIRETGIPARFSGSGSGTEFTLTISSLQSEDFAVYYCQQYYDWPPFTFGGGTKVEIK | 320 |  |  |  | 
Anti-SIRP-α antibody 119, light chain Mut, heavy chain wt (antibody, V domains shown) VH: EVQLLESGGGVVQPGGSLRLSCAASGFSFSNFAMTWVRQAPGEGLEWVSTIGSGDTYYADSVKGRFTISRDNSKNTLYLQMNSLRAEDTAVYYCAKDSTVSWSGDFFDYWGLGTLVTVSS VL: EIVLTQSPATLSVSPGERATLSCRASQNVKNDLAWYQQKPGQAPRLLIYAARIRETGIPARFSGSGSGTEFTLTISSLQSEDFAVYYCQQYYDWPPFTFGGGTKVEIK | 210 |  |  |  | 
Anti-SIRP-α antibody 119, light chain Mut, heavy chain Mut_V34M (antibody, V domains shown) VH: EVQLLESGGGVVQPGGSLRLSCAASGFSFSNFAMTWVRQAPGKGLEWVSTIGSGDTYYADSVKGRFTISRDNSKNTLYLQMNSLRAEDTAVYYCAKDSTVSWSGDFFDYWGQGTLVTVSS VL: EIVLTQSPATLSVSPGERATLSCRASQNVKNDLAWYQQKPGQAPRLLIYAARIRETGIPARFSGSGSGTEFTLTISSLQSEDFAVYYCQQYYDWPPFTFGGGTKVEIK | 220 |  |  |  | 
Anti-SIRP-α antibody 135, light chain Mut, heavy chain Mut (antibody, V domains shown) VH: EVQLVESGGGVVQPGGSLRLSCAASGFSFSIYAVSWVRQAPGKGLEWVSTIGADDTYYADSVKGRFTISRDNSKNTLYLQMNSLRAEDTAVYYCAKDSTVGWSGDFFDYWGQGTLVTVSS VL: EIVLTQSPATLSVSPGERVTLSCRASQNVRSDIAWYQQKPGQAPRLLIYAASSRDTGIPARFSGSGSGTDFTLTISSLQSEDFGVYYCQQYYDWPPFTFGGGTKVEIK | 190 |  |  |  | 

Stronger by Kd (SIRP-α human v1 (human)), values ahead:

Kd (SIRP-α human v1 (human)) [pM] | Kd [1] [pM] | Kd [2] [pM] | Kd [3] [pM] | Kd [4] [pM] | Binder
180 |  |  |  |  | Anti-SIRP-α antibody 119, light chain wt, heavy chain wt (antibody, V domains shown) VH: EVQLLESGGGVVQPGGSLRLSCAASGFSFSNFAMTWVRQAPGEGLEWVSTIGSGDTYYADSVKGRFTISRDNSKNTLYLQMNSLRAEDTAVYYCAKDSTVSWSGDFFDYWGLGTLVTVSS VL: EIVLTQSPATLSVSPGERATFSCRASQNVKNDLAWYQQRPGQAPRLLIYAARIRETGIPERFSGSGSGTEFTLTITSLQSEDFAVYYCQQYYDWPPFTFGGGTKVEIK
180 |  |  |  |  | Anti-SIRP-α antibody 135, light chain wt, heavy chain Mut (antibody, V domains shown) VH: EVQLVESGGGVVQPGGSLRLSCAASGFSFSIYAVSWVRQAPGKGLEWVSTIGADDTYYADSVKGRFTISRDNSKNTLYLQMNSLRAEDTAVYYCAKDSTVGWSGDFFDYWGQGTLVTVSS VL: EIVLTQSPATLSVSPGERVTFSCRASQNVRSDIAWYQQKPGQAPRLLIYAASSRDTGIPDRFSGSGSGTDFTLTISSLQSEDFGVYYCQQYYDWPPFTFGGGTKVEIK
150 |  |  |  |  | Anti-SIRP-α antibody 135, light chain wt, heavy chain Mut_V34M (antibody, V domains shown) VH: EVQLVESGGGVVQPGGSLRLSCAASGFSFSIYAMSWVRQAPGKGLEWVSTIGADDTYYADSVKGRFTISRDNSKNTLYLQMNSLRAEDTAVYYCAKDSTVGWSGDFFDYWGQGTLVTVSS VL: EIVLTQSPATLSVSPGERVTFSCRASQNVRSDIAWYQQKPGQAPRLLIYAASSRDTGIPDRFSGSGSGTDFTLTISSLQSEDFGVYYCQQYYDWPPFTFGGGTKVEIK
150 |  |  |  |  | Anti-SIRP-α antibody 135, light chain wt, heavy chain wt (antibody, V domains shown) VH: DVQLVESGGGVVRPGESLRLSCAASGFSFSIYAMSWVRQAPGEGLEWVSTIGADDTYYADSVKGRFTISRDNSKNTLYLQMNSLRAEDTAVYYCAKDSTVGWSGDFFDYWGLGTLVTVSS VL: EIVLTQSPATLSVSPGERVTFSCRASQNVRSDIAWYQQKPGQAPRLLIYAASSRDTGIPDRFSGSGSGTDFTLTISSLQSEDFGVYYCQQYYDWPPFTFGGGTKVEIK
150 |  |  |  |  | Anti-SIRP-α antibody 135, light chain Mut, heavy chain wt (antibody, V domains shown) VH: DVQLVESGGGVVRPGESLRLSCAASGFSFSIYAMSWVRQAPGEGLEWVSTIGADDTYYADSVKGRFTISRDNSKNTLYLQMNSLRAEDTAVYYCAKDSTVGWSGDFFDYWGLGTLVTVSS VL: EIVLTQSPATLSVSPGERVTLSCRASQNVRSDIAWYQQKPGQAPRLLIYAASSRDTGIPARFSGSGSGTDFTLTISSLQSEDFGVYYCQQYYDWPPFTFGGGTKVEIK
5.3 | 7900 | 3700 |  |  | Hum1/AB21_HC_Mutall (antibody, V domains shown) VH: EVQLVESGGGVVQPGGSLRLSCAASGFTFSSNAMSWVRQAPGKGLEWVAGISAGGSDTYYPASVKGRFTISRDNSKNTLYLQMNSLRAEDTAVYYCARETWNHLFDYWGQGTLVTVSS VL: SYELTQPPSVSVSPGQTARITCSGGSYSSYYYAWYQQKPGQAPVTLIYSDDKRPSNIPERFSGSSSGTTVTLTISGVQAEDEADYYCGGYDQSSYTNPFGGGTKLTVL
12 |  |  | 140000 | 24000 | Hum9/AB21_HC_Mutall (antibody, V domains shown) VH: EVQLVESGGGVVQPGGSLRLSCAASGFTFSSNAMSWVRQAPGKGLEWVAGISAGGSDTYYPASVKGRFTISRDNSKNTLYLQMNSLRAEDTAVYYCARETWNHLFDYWGQGTLVTVSS VL: SYELTQPPSVSVSPGQTARITCSGGAYSSYYYAWYQQKPGQAPVLVIYSDDKRPSGIPERFSGSSSGTTVTLTISGVQAEDEADYYCGGYDQSSYTNPFGGGTKLTVL
20 |  |  | 71000 | 28000 | Hum8/AB21_HC_Mutall (antibody, V domains shown) VH: EVQLVESGGGVVQPGGSLRLSCAASGFTFSSNAMSWVRQAPGKGLEWVAGISAGGSDTYYPASVKGRFTISRDNSKNTLYLQMNSLRAEDTAVYYCARETWNHLFDYWGQGTLVTVSS VL: SYELTQPPSVSVSPGQTARITCSGGAYSSYYYAWYQQKPGQAPVLVIYSDSKRPSGIPERFSGSSSGTTVTLTISGVQAEDEADYYCGGYDQSSYTNPFGGGTKLTVL
